Molecular target: the molecule itself
Assay: SEC; size exclusion chromatography of purified LuxS (Superdex 200 named in the purification); data not shown

B1: S-ribosylhomocysteinase (LuxS) from Streptococcus suis strain HA9801 (enzyme, UniProt A4VTE8 1-160, looked up)
chain: MKKEVTVESFELDHTIVKAPYIRLISEEVGPKGDIITNFDIRLIQPNENAMDTAGLHTIEHLLAKLIRQRIDGLIDCSPFGCRTGFHMIMWGKQDSEKIAQVIKSSLEEIAEGITWEDVPGTTIESCGNYKDHSLHSAKEWAKLILSQGISTDAFERKPI
notes: also called S. suis LuxS; SS LuxS protein; source: E. coli BL21 (DE3), pET28-luxS, purified (HisTrap column, Superdex 200 size-exclusion chromatography)
stoichiometry N: 2
